The source of these data is the supplement of paper PMC12042874.

± gives the uncertainty stated by the source.

This data set is described as follows: amyloid nucleation score (Sup35N fusion, yeast selection) (log enrichment); library NNK1; higher = more nucleation; inactive = no reads after selection. The procedure, abridged: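 The nucleation score is the log enrichment of output over input reads, calculated with DiMSum and centred on the mode score of non-aggregating sequences. Sequences with under 100 input reads were excluded. Reads came from Illumina sequencing of plasmid inserts from psi-negative yeast expressing Sup35N fused to peptides of 20 random codons, induced 24 hours with 100 μM copper sulfate and grown 7 days at 30°C without adenine and uracil.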
LCINLVYRKISPALRF displayed an amyloid nucleation score of -0.859 ± 0.75.
LCKRNVKCQFL returned an amyloid nucleation score of 0.192 ± 0.59.
In the case of LCLISDMPKHFGCGYTKCSL it was -1.17 ± 0.63.
LCLRVEGGNKPTEHCITSPT came in with an amyloid nucleation score of -0.234 ± 0.43.
On to LCLYGVC, for which the amyloid nucleation score is -0.164 ± 0.56.
As for LCQVTG, the amyloid nucleation score came out at 0.391 ± 0.48.
In the case of LCSMTKTNVVRSECRVLTRR it was 1.86 ± 0.65.
The value for LCTDCLSGTVSDCRMFSHNR was -0.592 ± 0.75; that for LCVNERVHQSLSRQRIPNCL was 1.26 ± 0.61; that for LCWRYMVLRMNFFAADLYYN was 1.39 ± 0.32.
Regarding LDAGH, the amyloid nucleation score was -1.56 ± 1.8.
Consider LDARKKARMWRNTIDMDELV, for which the amyloid nucleation score entry is “inactive”.
The substance LDCDSSLGRN returned an amyloid nucleation score of 0.722 ± 0.39.
LDCELLQRNFSNTKGHPIYR: the amyloid nucleation score is 0.052 ± 0.35.
In the case of LDGVFNTTIATVNSFREYLM it was 0.132 ± 0.48; in that of LDHNGEGFFFKGSLFVNCLA, -0.912 ± 1.6.
In the case of LDILDLVRTNVIRTKKPFEI it was -0.348 ± 0.83; in that of LDKYLHLRLWHTVFWYSTIK, “inactive”; in that of LDNIMVCNYAE, “inactive”.
In turn, LDQIQIFSEIGVFRLVCQHI returned an amyloid nucleation score of -0.164 ± 0.64.
In the case of LDRVWMYTIRLLQMKAMVLP it was 0.497 ± 0.64.
As for LDSGQAPSMLLWGSNYWEKL, the amyloid nucleation score came out at 0.808 ± 0.9.
In turn, LDSTLSLQ returned an amyloid nucleation score of 0.071 ± 0.3.
Substance LDTIVIVWRNCLRYKFHLCL registered an amyloid nucleation score of -0.057 ± 0.84.
For the substance LEALGYLWDKWAYYAMVMRS, the amyloid nucleation score was 0.836 ± 0.97.
In the case of LERKMYRNISSLTVVGYTMS it was -0.095 ± 0.51; in that of LFFQPLVLFKKRLEYCFRLL, 0.2 ± 0.6; in that of LFGKRCGHGQCQDHWKAVCV, -0.008 ± 0.61.
Substance LFHRIV came in with an amyloid nucleation score of -0.353 ± 0.54.
LFILPCQVNLHECMVLCLFE: the amyloid nucleation score worked out at 5.91 ± 0.06.
LFLCRILYCLWVNVFLLGHE came in with an amyloid nucleation score of 0.367 ± 0.32.
The value for LFRDACLGMR was -0.494 ± 0.48.
In the case of LFSRFCTTVCKSTFRFDTR, the amyloid nucleation score was determined as 1.65 ± 0.76.
In the case of LFSRVFSAANVIRHNFLFME it was 0.746 ± 0.9.
In the case of LFVMSWYNYAVKFVAINTIT it was -0.031 ± 0.24; in that of LFVNM, “inactive”.
Consider LFWASVSSWYDGEGVGKPDV, for which the amyloid nucleation score amounted to 0.134 ± 0.47.
In turn, LGAQGLFVYSLLCQT gave an amyloid nucleation score of -0.126 ± 0.68.
In turn, LGESREVSGHDNRCWAFQ yielded an amyloid nucleation score of 0.594 ± 0.49.
The value for LGESTGIFFYGEIRPYLNGS was -0.148 ± 0.64; that for LGKNFLYISCSLTDQGAGLH was 2.7 ± 0.16; that for LGMKSVKWL was 0.345 ± 0.53.
LGMWRCKPRTTLAWSYLDPV displayed an amyloid nucleation score of 0.179 ± 0.71.
LGQLFHGGCD showed an amyloid nucleation score of 0.3 ± 0.43.
In the case of LGRGTKMLLKVYTVRTSNYR it was 0.592 ± 0.58.
With LGRSWWYYSQLWDSRHLSF, the amyloid nucleation score was -0.38 ± 1.5.
In the case of LGVIYLRLWFQSGGRQVLEG it was 0.089 ± 0.42.
In the case of LHLECLWCLARTSYF it was 8.244 ± 0.045; in that of LHRNSTPFIWHRRIEVSLGN, -0.201 ± 1.3.
The substance LIARMWANFRRGVSITARF registered an amyloid nucleation score of 0.87 ± 0.87.
In the case of LICSSYTNLALILHLWSKRF it was 0.209 ± 0.26; in that of LIDLCGLCFEAR, 0.181 ± 0.26; in that of LIGHRSRS, -1.57 ± 1.1.
In the case of LILHSNSGFNGYWVSQWNTM it was -0.304 ± 0.44; in that of LIQLVDRVGGGVFTRDCDAI, -0.368 ± 0.47; in that of LISFSCVVNSLAEPRYIFLS, 1.13 ± 0.88.
In the case of LITNP it was 2.86 ± 0.12; in that of LIVLWNCSADPDGFMWCSKC, “inactive”; in that of LIYFKGSS, 0.399 ± 0.79.
LKAELSNLKAHVLW had an amyloid nucleation score of 0.777 ± 0.54.
In the case of LKAGFM it was -0.102 ± 0.28; in that of LKAIFVFFVEFRDPLIMRES, 0.269 ± 0.79.
Take LKDCSCVERQD: the amyloid nucleation score was -0.072 ± 0.38.
In the case of LKKTYYSMYL it was -0.045 ± 0.33; in that of LKQTPMLGDMGWGHRCLGKT, -0.262 ± 0.73; in that of LKRDSFWVLIKWTRLDMGVS, 0.056 ± 0.37.
The value for LKRVGSNLNT was -0.229 ± 1.4; that for LKTSRMFLG was -0.68 ± 0.39.
On to LKVTCFRTYANFGRYDILVF, for which the amyloid nucleation score was 0.096 ± 0.53.
In the case of LKWSSGHGKIGSNVWRRVYC it was 0.42 ± 1.2; in that of LKWWWIQNAGCTVVIMVL, -0.701 ± 0.54; in that of LLAIHAYREVLTGPGCGYLT, 1.15 ± 0.66.
The value for LLAPAS was 0.032 ± 0.35.
As for LLASRPEG, the amyloid nucleation score was -0.437 ± 0.35.
Substance LLAVCYVIF had an amyloid nucleation score of 1.98 ± 0.24.
On to LLCSKCGFTDQFQS, for which the amyloid nucleation score was -1.09 ± 1.2.
The value for LLCTYISTEAPIVTFLRLTY was -0.667 ± 0.44; that for LLDRLRRTGLRRCYVSGEFP was 5.89 ± 0.084.
In the case of LLGDMMALQAYSELLRFMSG it was -0.234 ± 0.61; in that of LLGVSAF, -0.718 ± 0.68.
LLHVYYFFISWPMFCMVYM had an amyloid nucleation score of -0.203 ± 0.72.
In the case of LLIGWASEDHRYKGISNGGG it was 0.598 ± 0.34; in that of LLKSKGGLPILRPCWLPFWQ, 0.066 ± 0.75.
In the case of LLLAY it was -0.716 ± 0.44; in that of LLLDLILY, -0.505 ± 0.72; in that of LLLIRSYKCNGRRIRICSLL, -0.862 ± 0.76.
In turn, LLLYPRMGDRGTYYGMSGIR had an amyloid nucleation score of -1.01 ± 2.7.
In the case of LLRLLVRAVMFFWAWGSRGA it was “inactive”; in that of LLSIVPPDIFCQFSGHGRLT, 0.26 ± 0.62; in that of LLTSMSSGLVDYR, “inactive”.
In the case of LLVCSMHFISMTPVMPNSTA it was 2.12 ± 0.24; in that of LLVVSYFITSLSTCMFGYWK, -0.411 ± 0.63.
In the case of LLWAPILCLTGDNTVGFLSP, the amyloid nucleation score was 3.3 ± 0.066.
In the case of LLWGATFCSSIQPDYNLSPV it was -0.095 ± 0.44.
For the substance LMFGLAMVNENPRGLSELRR, the amyloid nucleation score came out at 0.065 ± 0.27.
For LMFSDGWFLNGEISPWVGF, the amyloid nucleation score is -0.393 ± 0.71.
Take LMKGTYFIMCNLLAYECLTR: the amyloid nucleation score was 2.78 ± 0.14.
For LMSLRDQRVLALN, the amyloid nucleation score is -0.533 ± 0.44.
The substance LMSWEL registered an amyloid nucleation score of 0.462 ± 1.2.
The value for LMTLINPQFFSCSFLDDVSN was -0.362 ± 0.6; that for LMWSMPNGTSYGNGPVEWTG was -0.515 ± 0.81; that for LNDRYYVIM was 0.233 ± 0.93.
LNFIHNGM returned an amyloid nucleation score of -0.444 ± 1.9.
Consider LNGPTVTKECRGAYMVMPGT, for which the amyloid nucleation score was -0.431 ± 1.1.
In the case of LNHSYMICLFLCNR it was 6.95 ± 0.073; in that of LNINSFFVFGT, 4.97 ± 0.057; in that of LNIRVIRGLGRMNAPVVSDL, 1.32 ± 0.57.
LNLAKPLFSHRLRRFKCSYF registered an amyloid nucleation score of 2.08 ± 0.23.
Turning to LNPCHWGAFLY, the amyloid nucleation score was 0.648 ± 0.67.
The substance LNRSNWANFCMAEFMDPRS gave an amyloid nucleation score of 0.488 ± 0.58.
The substance LNSYVRG yielded an amyloid nucleation score of 0.201 ± 0.3.
For the substance LNWMCTNWAMFFYTQVILQY, the amyloid nucleation score is -0.488 ± 1.1.
The value for LNYTVQSDTWHLNWQP was 0.875 ± 0.93.
The substance LPFEVRLDCDVVGGG gave an amyloid nucleation score of 0.725 ± 0.48.
Regarding LPFMTHVHVLSRQKTKVKGR, the amyloid nucleation score was -0.041 ± 0.28.
Take LPFNVL: the amyloid nucleation score came out at 3.09 ± 0.2.
The value for LPLHAESTGCYGLFSEHFSI was -1.27 ± 1.2.
The value for LPRRKLNFIGLKISISIIAV was “inactive”.
The value for LPSGLRCRTSRMDVAKLAK was 0.441 ± 0.47.
Turning to LPSSGA, the amyloid nucleation score was -0.019 ± 0.64.
The value for LPWLPLKSRYALTAKFTCEP was 0.261 ± 1.2; that for LPWYSSQMRADVSTPERWFL was -0.224 ± 0.7; that for LQGCGYYKFGITEEWH was 0.415 ± 0.78.
As for LQNETLSMSMRLLMAYFIKL, the amyloid nucleation score is 0.13 ± 1.2.
On to LQWNRERGLTLLSWLRYKSI, for which the amyloid nucleation score was -0.505 ± 1.5.
In the case of LRAFR it was 1.81 ± 0.33; in that of LRDNMLSEGMQLYCMARASA, -0.201 ± 0.72.
In the case of LRFVVFASTIGRGIGST, the amyloid nucleation score is -0.892 ± 0.48.
The substance LRHTCVRPSWSNAIFMPNSA registered an amyloid nucleation score of 0.834 ± 0.57.
The value for LRIFSA was 1.22 ± 0.8; that for LRIRYT was 2.42 ± 0.17.
The substance LRKCSLAVPYGLRLVYLRKE displayed an amyloid nucleation score of 0.14 ± 0.54.
In the case of LRKSHYFTY, the amyloid nucleation score was -0.429 ± 0.58.
LRKTFF returned an amyloid nucleation score of 0.38 ± 0.33.
Substance LRLTALGSSRPIKFEGNVGY gave an amyloid nucleation score of -0.532 ± 0.68.
In the case of LRMKANYVTSAFNRCVLLLG, the amyloid nucleation score stood at 0.425 ± 0.41.
In the case of LRNRMGNDIISILITIPKIV it was 0.217 ± 0.34.
For LRRLNRHFIVTFFNGTRCDF, the amyloid nucleation score stood at 2.1 ± 0.26.
The value for LRSGKAQYTEVVLLRIRPGF was -1.4 ± 2.7.
The value for LRTRSLTALFQLCYHTCNVG was 0.431 ± 0.42; that for LRVQWRQSTFN was 0.865 ± 0.48; that for LRYCNMHHRHDSYGLSSYSY was 2.21 ± 0.11.
